Experimental data taken from patent US8822171.

The substances below were run on recombinant human tau, largest isoform (2N4R).
For casein kinase 2 (CK2), the “New sites identified in recombinant tau (phosphorylated residues, numbered on 441-residue human tau)” value (“New sites identified in recombinant tau” below) was “(52/56), 199, 386, 400, (412/413/414/416, 1 site)” and the “in vitro phosphorylation of recombinant tau, sites identified by LC/MS/MS” value (“in vitro phosphorylation” for short) was “CK2 found 5 new sites making a total of 8 in all”.
With glycogen synthase kinase 3β (GSK-3β) the “New sites identified in recombinant tau” value was 149, 220, 237, 241, 245, 258, 285, 289, 305, 352, 373, (409/412/413/414/416, 2 sites of which 1 or 2 are new) and the “in vitro phosphorylation” value was “GSK-3 found 12 new sites making a total of 38 in all”.
For “cyclic AMP-dependent protein kinase (PKA)”, the “New sites identified in recombinant tau” value was 210, (217/220), 258, 352, (412/413) and the “in vitro phosphorylation” value was “PKA found 5 new sites making a total of 24 in all”.
